Among the data in PMC8359340 are stoichiometry N values, retold here.

By stoichiometry N is commonly meant the number of molecules, sites or subunits per partner or assembly.

The experiment addresses Synechococcus sp. PCC 7002 Type 2 β‐McdB (Synechococcus sp. PCC 7002). The experiment is described as follows: SEC-MALS.

In the case of “Synechococcus sp. PCC 7002 Type 2 β‐McdB (natural protein)”, the stoichiometry N worked out at 2.
